Test results published in patent publication US20050214309A1, “Methods and compositions for modulating transcription factor activity” (published 2005).

Target: T1, ATF1 (Homo sapiens, UniProt P18846 SEQ:1-271)
T1 sequence: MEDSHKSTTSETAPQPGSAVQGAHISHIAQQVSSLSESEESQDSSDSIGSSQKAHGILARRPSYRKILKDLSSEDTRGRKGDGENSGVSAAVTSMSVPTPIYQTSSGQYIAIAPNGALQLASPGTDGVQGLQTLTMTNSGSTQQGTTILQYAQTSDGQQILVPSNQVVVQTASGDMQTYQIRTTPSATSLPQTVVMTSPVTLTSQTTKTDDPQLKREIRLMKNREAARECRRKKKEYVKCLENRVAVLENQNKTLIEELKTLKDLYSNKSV
Test: competition; 100-fold excess unlabeled AP1 did not diminish ATF1/CRE complex
Conditions: tags: E. coli pET-11d, DNA-cellulose purified

B1: AP1 oligonucleotide (dsDNA)
DNA 1: CGCTTGATGAGTCAGCCGGAA
DNA 2: TTCCGGCTGACTCATCAAGCG
binding result: no binding
